Where no end group is shown, it is not given here. [ ]: non-standard residue; d: D form. pT = C[C@@H](OP(=O)(O)O)[C@H](N)C(=O)O
B1: ALEAUQLYL (SEQ ID NO: 29, DEPDC4) (peptide)
peptide: ALEA[pT]QLYL
B2: SLAEPRVSV (SEQ ID NO: 27, FASN) (peptide)
peptide: SLAEPRVSV
B3: FMSKLVPAI (SEQ ID NO: 9, TPRG1) (peptide)
peptide: FMSKLVPAI
B4: KQLELELEV (SEQ ID NO: 14, MUC6) (peptide)
peptide: KQLELELEV
B5: ALTALQNYL (SEQ ID NO: 6, TFAP2B) (peptide)
peptide: ALTALQNYL
B6: YILLQSPQL (SEQ ID NO: 18, MUC6) (peptide)
peptide: YILLQSPQL
B7: FSFPVSVGV (SEQ ID NO: 20, DUSP4) (peptide)
peptide: FSFPVSVGV
B8: GLHSLPPEV (SEQ ID NO: 10, LRRC8E) (peptide)
peptide: GLHSLPPEV
B9: SLAWDVPAA (SEQ ID NO: 26, FASN) (peptide)
peptide: SLAWDVPAA
B10: SLNDQGYLL (SEQ ID NO: 41, MCM8) (peptide)
peptide: SLNDQGYLL
B11: KMPEHISTV (SEQ ID NO: 1, CILP) (peptide)
peptide: KMPEHISTV
B12: YIDGLESRV (SEQ ID NO: 22, CREB3L4) (peptide)
peptide: YIDGLESRV
B13: SLFPSLVVV (SEQ ID NO: 15, PLEC) (peptide)
peptide: SLFPSLVVV
B14: ALAGSSPQV (SEQ ID NO: 2, CNTD2) (peptide)
peptide: ALAGSSPQV
B15: GLVATLQSL (SEQ ID NO: 32, IFI6) (peptide)
peptide: GLVATLQSL
B16: SLLTEPALV (SEQ ID NO: 21, TBC1D9) (peptide)
peptide: SLLTEPALV
B17: SLADAVEKV (SEQ ID NO: 23, CCDC122) (peptide)
peptide: SLADAVEKV
B18: FLDEEVKLI (SEQ ID NO: 43, FTL) (peptide)
peptide: FLDEEVKLI
B19: KLLDMELEM (SEQ ID NO: 39, FAH) (peptide)
peptide: KLLDMELEM
B20: FIIPTVATA (SEQ ID NO: 7, ABCC11) (peptide)
peptide: FIIPTVATA
B21: SLFSVPFFL (SEQ ID NO: 28, TM9SF1) (peptide)
peptide: SLFSVPFFL
B22: FLVEHVLTL (SEQ ID NO: 42, SLC39A6) (peptide)
peptide: FLVEHVLTL
B23: LLMUVAGLKL (SEQ ID NO: 38, PCNXL3) (peptide)
peptide: LLM[pT]VAGLKL
B24: GLVQSLTSI (SEQ ID NO: 8, ABCC11) (peptide)
peptide: GLVQSLTSI
B25: GLLGFQAEA (SEQ ID NO: 24, MAGED1) (peptide)
peptide: GLLGFQAEA
B26: TLLGLAVNV (SEQ ID NO: 36, CHPT1) (peptide)
peptide: TLLGLAVNV
B27: SMMGLLTNL (SEQ ID NO: 16, ESR1) (peptide)
peptide: SMMGLLTNL
B28: SLLSEIQAL (SEQ ID NO: 35, AKAP9, PCNT) (peptide)
peptide: SLLSEIQAL
B29: FLSSEAANV (SEQ ID NO: 30, TNFAIP2) (peptide)
peptide: FLSSEAANV
B30: ILFDVVVFL (SEQ ID NO: 25, C4orf3) (peptide)
peptide: ILFDVVVFL
B31: ALNPVIYTV (SEQ ID NO: 5, DRD4) (peptide)
peptide: ALNPVIYTV
B32: GLLPTSVSPRV (SEQ ID NO: 11, SCUBE2) (peptide)
peptide: GLLPTSVSPRV
B33: TIASSIEKA (SEQ ID NO: 17, STPG2) (peptide)
peptide: TIASSIEKA
B34: GLSYIYNTV (SEQ ID NO: 31, COG6) (peptide)
peptide: GLSYIYNTV
B35: SLVEGEAVHLA (SEQ ID NO: 4, TFAP2E, TFAP2A, TFAP2B, TFAP2C) (peptide)
peptide: SLVEGEAVHLA
B36: KAFPFYNTV (SEQ ID NO: 12, NAIP) (peptide)
peptide: KAFPFYNTV
B37: ALEEQLHQV (SEQ ID NO: 19, KRT25, KRT28, KRT27) (peptide)
peptide: ALEEQLHQV
B38: KLYEGIPVL (SEQ ID NO: 13, NEK10) (peptide)
peptide: KLYEGIPVL
B39: ILTELPPGV (SEQ ID NO: 33, ZNF407) (peptide)
peptide: ILTELPPGV

Target: T1, HLA-A*02:01 (human)
T1 construct: MHC class I monomer in the UV-ligand exchange assay, captured on streptavidin plates; also called peptide-receptive MHC molecules
Assay: UV-ligand exchange, anti-β2m ELISA; grade of peptide exchange yield (legend: ≥50 = +++)
Source text: (§1) Candidate peptides for T cell based therapies according to the present invention were further tested for their MHC binding capacity (affinity). The individual peptide-MHC complexes were produced by UV-ligand exchange, where a UV-sensitive peptide is cleaved upon UV-irradiation, and exchanged with the peptide of interest as analyzed. Only peptide candidates that can effectively bind and stabilize the peptide-receptive MHC molecules prevent dissociation of the MHC complexes. To determine the yield of the exchange reaction, an ELISA was performed based on the detection of the light chain (β2m) of stabilized MHC complexes. The assay was performed as generally described in Rodenko et al. (Rodenko et al., 2006).
(§2) 96 well MAXISorp plates (NUNC) were coated over night with 2 ug/ml streptavidin in PBS at room temperature, washed 4× and blocked for 1 h at 37° C. in 2% BSA containing blocking buffer. Refolded HLA-A*02:01/MLA-001 monomers served as standards, cov-ering the range of 15-500 ng/ml. Peptide-MHC monomers of the UV-exchange reaction were diluted 100-fold in blocking buffer. Samples were incubated for 1 h at 37° C., washed four times, incubated with 2 ug/ml HRP conjugated anti-β2m for 1 h at 37° C., washed again and detected with TMB solution that is stopped with NH2SO4. Absorp-tion was measured at 450 nm. Candidate peptides that show a high exchange yield (preferably higher than 50%, most preferred higher than 75%) are generally preferred for a generation and production of antibodies or fragments thereof, and/or T cell receptors or fragments thereof, as they show sufficient avidity to the MHC molecules and prevent dissociation of the MHC complexes.

How did the peptide exchange yield turn out when B1 was run?
The peptide exchange yield was 50 to 75%.

How did the peptide exchange yield turn out when B2 was run?
Its peptide exchange yield is 50 to 75%.

How did the peptide exchange yield turn out when B3 was run?
Its peptide exchange yield is 50 to 75%.

How did the peptide exchange yield turn out when B4 was run?
The peptide exchange yield was 50 to 75%.

How did the peptide exchange yield turn out when B5 was run?
The peptide exchange yield was 50 to 75%.

With B6 as the binder, how does the peptide exchange yield read?
The peptide exchange yield was 50 to 75%.

How did the peptide exchange yield turn out when B7 was run?
The peptide exchange yield was 50 to 75%.

Which peptide exchange yield does the source give for B8 here?
Its peptide exchange yield is 50 to 75%.

B9 was tested. Which peptide exchange yield did it give?
Its peptide exchange yield is 50 to 75%.

With B10 as the binder, how does the peptide exchange yield read?
Its peptide exchange yield is 50 to 75%.

With B11 as the binder, how does the peptide exchange yield read?
Its peptide exchange yield is 50 to 75%.

For B12, which peptide exchange yield is on record?
Its peptide exchange yield is 50 to 75%.

For B13, which peptide exchange yield is on record?
The peptide exchange yield was 50 to 75%.

With B14 as the binder, how does the peptide exchange yield read?
The peptide exchange yield was 50 to 75%.

B15 was tested. Which peptide exchange yield did it give?
Its peptide exchange yield is 50 to 75%.

B16 was tested. Which peptide exchange yield did it give?
The peptide exchange yield was 50 to 75%.

With B17 as the binder, how does the peptide exchange yield read?
Its peptide exchange yield is 50 to 75%.

With B18 as the binder, how does the peptide exchange yield read?
The peptide exchange yield was 50 to 75%.

Target: T1, HLA-A*02:01
Assay: UV-ligand exchange, anti-β2m ELISA; grade of peptide exchange yield (legend: ≥75% = ++++)
Source text: as §1, §2

Which peptide exchange yield does the source give for B19 here?
The peptide exchange yield was ≥ 75%.

How did the peptide exchange yield turn out when B20 was run?
Its peptide exchange yield is ≥ 75%.

With B21 as the binder, how does the peptide exchange yield read?
The peptide exchange yield was ≥ 75%.

Which peptide exchange yield does the source give for B22 here?
Its peptide exchange yield is ≥ 75%.

B23 was tested. Which peptide exchange yield did it give?
Its peptide exchange yield is ≥ 75%.

Which peptide exchange yield does the source give for B24 here?
The peptide exchange yield was ≥ 75%.

For B25, which peptide exchange yield is on record?
The peptide exchange yield was ≥ 75%.

For B26, which peptide exchange yield is on record?
Its peptide exchange yield is ≥ 75%.

How did the peptide exchange yield turn out when B27 was run?
Its peptide exchange yield is ≥ 75%.

With B28 as the binder, how does the peptide exchange yield read?
Its peptide exchange yield is ≥ 75%.

Target: T1, HLA-A*02:01
Assay: UV-ligand exchange, anti-β2m ELISA; grade of peptide exchange yield (legend: ≥20% = ++)
Source text: as §1, §2

How did the peptide exchange yield turn out when B29 was run?
Its peptide exchange yield is 20 to 50%.

How did the peptide exchange yield turn out when B30 was run?
The peptide exchange yield was 20 to 50%.

For B31, which peptide exchange yield is on record?
The peptide exchange yield was 20 to 50%.

How did the peptide exchange yield turn out when B32 was run?
Its peptide exchange yield is 20 to 50%.

With B33 as the binder, how does the peptide exchange yield read?
Its peptide exchange yield is 20 to 50%.

Which peptide exchange yield does the source give for B34 here?
The peptide exchange yield was 20 to 50%.

How did the peptide exchange yield turn out when B35 was run?
The peptide exchange yield was 20 to 50%.

B36 was tested. Which peptide exchange yield did it give?
Its peptide exchange yield is 20 to 50%.

B37 was tested. Which peptide exchange yield did it give?
Its peptide exchange yield is 20 to 50%.

B38 was tested. Which peptide exchange yield did it give?
Its peptide exchange yield is 20 to 50%.

Which peptide exchange yield does the source give for B39 here?
The peptide exchange yield was 20 to 50%.
